Data published in PMC2756588.

T1: Abp1, P15891
T1 sequence (P15891 535-592, looked up): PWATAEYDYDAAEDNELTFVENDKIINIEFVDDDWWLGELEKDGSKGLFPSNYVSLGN

T2: Bbc1, P47068
T2 sequence (P47068 1-78, looked up): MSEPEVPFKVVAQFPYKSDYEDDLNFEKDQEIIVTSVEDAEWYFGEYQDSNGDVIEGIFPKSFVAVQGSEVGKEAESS

T3: Boi1, P38041
T3 sequence (P38041 1-86, looked up): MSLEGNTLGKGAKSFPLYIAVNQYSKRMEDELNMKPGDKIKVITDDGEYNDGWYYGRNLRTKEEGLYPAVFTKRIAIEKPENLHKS

T4: Boi2, P39969
T4 sequence (P39969 32-116, looked up): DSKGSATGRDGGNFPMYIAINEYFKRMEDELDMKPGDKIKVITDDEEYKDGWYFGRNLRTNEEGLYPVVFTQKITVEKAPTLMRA

T5: Bud14, P27637
T5 sequence (P27637 247-328, looked up): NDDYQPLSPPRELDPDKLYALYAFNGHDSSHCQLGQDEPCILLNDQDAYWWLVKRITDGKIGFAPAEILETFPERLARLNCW

T6: Bzz1-1, P38822
T6 sequence (P38822 478-572, looked up): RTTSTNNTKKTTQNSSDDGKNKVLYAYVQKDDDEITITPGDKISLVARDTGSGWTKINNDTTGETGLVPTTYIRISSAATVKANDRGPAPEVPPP

T7: Bzz1-2, P38822
T7 sequence (P38822 568-633, looked up): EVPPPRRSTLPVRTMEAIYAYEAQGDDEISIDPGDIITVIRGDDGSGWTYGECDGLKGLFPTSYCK

T8: Cdc25, P04821
T8 sequence (P04821 50-136, looked up): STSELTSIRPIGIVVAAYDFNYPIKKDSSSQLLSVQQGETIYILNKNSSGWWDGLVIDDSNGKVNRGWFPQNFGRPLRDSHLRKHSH

T9: Cyk3, Q07533
T9 sequence (Q07533 1-83, looked up): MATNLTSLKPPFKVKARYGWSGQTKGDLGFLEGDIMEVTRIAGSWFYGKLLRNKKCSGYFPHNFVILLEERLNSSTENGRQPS

T10: Fus1, P11710
T10 sequence (P11710 432-512, looked up): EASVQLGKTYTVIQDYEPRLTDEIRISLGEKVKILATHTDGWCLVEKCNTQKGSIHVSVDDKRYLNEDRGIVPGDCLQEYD

T11: Hof1, Q05080
T11 sequence (Q05080 590-669, looked up): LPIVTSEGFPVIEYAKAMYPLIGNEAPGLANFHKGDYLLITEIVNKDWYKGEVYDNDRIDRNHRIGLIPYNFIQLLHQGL

T12: Hse1, P38753
T12 sequence (P38753 208-285, looked up): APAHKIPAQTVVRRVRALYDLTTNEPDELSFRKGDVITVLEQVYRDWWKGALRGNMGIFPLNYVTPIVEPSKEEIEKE

T13: Lsb1, P53281
T13 sequence (P53281 45-122, looked up): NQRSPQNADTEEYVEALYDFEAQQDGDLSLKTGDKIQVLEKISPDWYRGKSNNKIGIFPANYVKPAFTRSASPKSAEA

T14: Lsb3, P43603
T14 sequence (P43603 385-451, looked up): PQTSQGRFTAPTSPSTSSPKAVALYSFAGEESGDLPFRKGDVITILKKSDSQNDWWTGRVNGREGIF

T15: Lsb4, P32793
T15 sequence (P32793 402-468, looked up): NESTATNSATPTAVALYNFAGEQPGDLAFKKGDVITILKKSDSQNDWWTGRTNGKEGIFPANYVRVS

T16: Myo5, Q04439
T16 sequence (Q04439 1072-1160, looked up): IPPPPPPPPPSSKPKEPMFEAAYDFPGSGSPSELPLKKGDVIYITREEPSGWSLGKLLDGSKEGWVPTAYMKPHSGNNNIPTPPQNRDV

T17: Nbp2, Q12163
T17 sequence (Q12163 103-180, looked up): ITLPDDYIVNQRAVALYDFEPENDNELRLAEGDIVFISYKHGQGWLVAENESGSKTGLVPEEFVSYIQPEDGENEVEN

T18: Pex13, P80667
T18 sequence (P80667 295-386, looked up): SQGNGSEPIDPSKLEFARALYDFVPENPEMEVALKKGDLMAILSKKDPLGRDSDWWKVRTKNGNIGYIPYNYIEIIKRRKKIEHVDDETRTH

T19: Pin3, Q06449
T19 sequence (Q06449 53-122, looked up): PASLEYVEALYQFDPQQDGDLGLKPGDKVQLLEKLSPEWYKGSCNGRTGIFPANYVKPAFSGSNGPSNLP

T20: Sla1-2, P32790
T20 sequence (P32790 60-140, looked up): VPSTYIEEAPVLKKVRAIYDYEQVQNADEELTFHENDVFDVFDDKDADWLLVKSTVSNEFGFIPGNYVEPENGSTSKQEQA

T21: Sla1-3, P32790
T21 sequence (P32790 344-424, looked up): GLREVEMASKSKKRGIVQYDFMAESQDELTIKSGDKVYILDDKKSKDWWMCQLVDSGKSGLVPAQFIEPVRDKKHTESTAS


Legend:
Test in all cases: SPOT array
Abp1, P15891 = target: T1, Abp1, P15891; conditions: median of control spots 935
Bbc1, P47068 = target: T2, Bbc1, P47068; conditions: median of control spots 796
Bem1-1, P29366 = conditions: median of control spots 4282
Bem1-1, P29366, sequence (P29366 55-141): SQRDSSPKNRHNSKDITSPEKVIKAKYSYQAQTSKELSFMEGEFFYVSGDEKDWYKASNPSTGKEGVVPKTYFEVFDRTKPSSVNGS

Bem1-2, P29366 = conditions: median of control spots 4347
Bem1-2, P29366, sequence (P29366 139-227): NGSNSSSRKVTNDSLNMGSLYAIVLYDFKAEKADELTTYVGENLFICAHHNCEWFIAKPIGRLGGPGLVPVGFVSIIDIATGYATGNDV

Boi1, P38041 = target: T3, Boi1, P38041; conditions: median of control spots 1162
Boi2, P39969 = target: T4, Boi2, P39969; conditions: median of control spots 1161
Bud14, P27637 = target: T5, Bud14, P27637; conditions: median of control spots 956
Bzz1-1, P38822 = target: T6, Bzz1-1, P38822; conditions: median of control spots 4446
Bzz1-2, P38822 = target: T7, Bzz1-2, P38822; conditions: median of control spots 4538
Cdc25, P04821 = target: T8, Cdc25, P04821; conditions: median of control spots 969
Cyk3, Q07533 = target: T9, Cyk3, Q07533; conditions: median of control spots 1451
Fus1, P11710 = target: T10, Fus1, P11710; conditions: median of control spots 1200
GST = conditions: median of control spots 978
Hof1, Q05080 = target: T11, Hof1, Q05080; conditions: median of control spots 4086
Hse1, P38753 = target: T12, Hse1, P38753; conditions: median of control spots 1727
Lsb1, P53281 = target: T13, Lsb1, P53281; conditions: median of control spots 388
Lsb3, P43603 = target: T14, Lsb3, P43603; conditions: median of control spots 406
Lsb4, P32793 = target: T15, Lsb4, P32793; conditions: median of control spots 397
Myo3, P36006 = conditions: median of control spots 468
Myo5, Q04439 = target: T16, Myo5, Q04439; conditions: median of control spots 471
Nbp2, Q12163 = target: T17, Nbp2, Q12163; conditions: median of control spots 357
Pex13, P80667 = target: T18, Pex13, P80667; conditions: median of control spots 1341
Pin3, Q06449 = target: T19, Pin3, Q06449; conditions: median of control spots 2171
Rvs167, P39743 = conditions: median of control spots 2707
Rvs167, P39743, sequence (P39743 419-482): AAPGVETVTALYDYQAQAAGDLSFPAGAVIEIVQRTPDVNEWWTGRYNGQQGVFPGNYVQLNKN

Sho1, P40073 = conditions: median of control spots 1148
Sho1, P40073, sequence (P40073 287-367): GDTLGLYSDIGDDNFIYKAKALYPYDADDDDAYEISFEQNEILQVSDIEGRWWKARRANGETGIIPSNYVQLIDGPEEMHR

Sla1-2, P32790 = target: T20, Sla1-2, P32790; conditions: median of control spots 712
Sla1-3, P32790 = target: T21, Sla1-3, P32790; conditions: median of control spots 5475

| SPOT intensity (Abp1, P15891) | SPOT intensity (Bbc1, P47068) | SPOT intensity (Bem1-1, P29366) | SPOT intensity (Bem1-2, P29366) | SPOT intensity (Boi1, P38041) | SPOT intensity (Boi2, P39969) | SPOT intensity (Bud14, P27637) | SPOT intensity (Bzz1-1, P38822) | SPOT intensity (Bzz1-2, P38822) | SPOT intensity (Cdc25, P04821) | SPOT intensity (Cyk3, Q07533) | SPOT intensity (Fus1, P11710) | SPOT intensity (GST) | SPOT intensity (Hof1, Q05080) | SPOT intensity (Hse1, P38753) | SPOT intensity (Lsb1, P53281) | SPOT intensity (Lsb3, P43603) | SPOT intensity (Lsb4, P32793) | SPOT intensity (Myo3, P36006) | SPOT intensity (Myo5, Q04439) | Binder | further results |
| --- | --- | --- | --- | --- | --- | --- | --- | --- | --- | --- | --- | --- | --- | --- | --- | --- | --- | --- | --- | --- | --- |
| 0 | 0 | 0 | 0 | 4 | 0 | 0 | 2 | 0 | 0 | 0 | 0 | 1 | 0 | 0 | 461 | 478 | 642 | 0 | 0 | ANNQGPPNLPARDKS | SPOT intensity (Nbp2, Q12163): 0; SPOT intensity (Pex13, P80667): 229; SPOT intensity (Pin3, Q06449): 0; SPOT intensity (Rvs167, P39743): 3320; SPOT intensity (Sho1, P40073): 0; SPOT intensity (Sla1-2, P32790): 1; SPOT intensity (Sla1-3, P32790): 0 |
| 6 | 0 | 0 | 0 | 0 | 1 | 0 | 0 | 2 | 0 | 0 | 0 | 0 | 1560 | 0 | 174 | 131 | 278 | 7 | 27 | MAMRPIPPLPTESEY | SPOT intensity (Nbp2, Q12163): 0; SPOT intensity (Pex13, P80667): 235; SPOT intensity (Pin3, Q06449): 4; SPOT intensity (Rvs167, P39743): 1460; SPOT intensity (Sho1, P40073): 30; SPOT intensity (Sla1-2, P32790): 0; SPOT intensity (Sla1-3, P32790): 0 |
| 156 | 1070 | 0 | 13 | 0 | 2 | 3 | 1 | 1 | 10 | 1 | 0 | 0 | 28 | 245 | 824 | 271 | 317 | 0 | 0 | EVTPKVPERPSRRKT | SPOT intensity (Nbp2, Q12163): 0; SPOT intensity (Pex13, P80667): 171; SPOT intensity (Pin3, Q06449): 25; SPOT intensity (Rvs167, P39743): 129; SPOT intensity (Sho1, P40073): 23; SPOT intensity (Sla1-2, P32790): 0; SPOT intensity (Sla1-3, P32790): 15 |
| 25 | 0 | 0 | 0 | 2 | 0 | 0 | 0 | 0 | 0 | 1 | 1 | 0 | 3 | 4 | 456 | 345 | 356 | 97 | 45 | TPTSGPPLLPPRNTM | SPOT intensity (Nbp2, Q12163): 0; SPOT intensity (Pex13, P80667): 813; SPOT intensity (Pin3, Q06449): 66; SPOT intensity (Rvs167, P39743): 2940; SPOT intensity (Sho1, P40073): 21; SPOT intensity (Sla1-2, P32790): 1; SPOT intensity (Sla1-3, P32790): 0 |
| 0 | 0 | 2 | 0 | 0 | 0 | 0 | 2 | 0 | 0 | 2 | 0 | 0 | 1330 | 0 | 1380 | 743 | 813 | 112 | 59 | VAPPPLPNRQLPNLD | SPOT intensity (Nbp2, Q12163): 0; SPOT intensity (Pex13, P80667): 563; SPOT intensity (Pin3, Q06449): 5; SPOT intensity (Rvs167, P39743): 5720; SPOT intensity (Sho1, P40073): 0; SPOT intensity (Sla1-2, P32790): 0; SPOT intensity (Sla1-3, P32790): 0 |
| 0 | 0 | 0 | 12 | 0 | 1 | 1 | 0 | 0 | 0 | 0 | 0 | 0 | 0 | 6 | 8 | 139 | 598 | 0 | 0 | YLTRPLPSTPNEDSR | SPOT intensity (Nbp2, Q12163): 0; SPOT intensity (Pex13, P80667): 297; SPOT intensity (Pin3, Q06449): 0; SPOT intensity (Rvs167, P39743): 15; SPOT intensity (Sho1, P40073): 1320; SPOT intensity (Sla1-2, P32790): 0; SPOT intensity (Sla1-3, P32790): 1 |
